Reference: article PMC6821830

Target: TopBP1 BRCT1-6 (UniProt Q92547)
Experiment: GST-TopBP1 pull-down from cell extract, blot
Conditions: reference: wild-type MEFs, IR-treated; sites S29

E2F1 (mouse) (from UniProt Q61501) E2f1 S29A knock-in MEFs, IR-treated
binding against the reference: lost
